Assay results as given in patent US9518268B2, “Drought tolerant transgenic plants and method of making same” (PURDUE RESEARCH FOUNDATION, priority 2013, dated 2016).
Where a chain is given by its changes, count along the chain named. Names and notes keep the numbering of the source.

B1: Q38K/F71L (protein)
chain: MESSKQKRCRSSVVETIEAPLPLVWSILRSFDKPQAYKRFVKSCTMRSGGGGGKGGEGKGSVRDVTLVSGLPADFSTERLEELDDESHVMVVSIIGGNHRLVNYKSKTKVVASPEDMAKKTVVVESYVVDVPEGTSEEDTIFFVDNIIRYNLTSLAKLTKKMMK
B2: Q38K/F71L/N98D (protein)
chain: B1 chain with N98D
B3: Q38K/F71L/N98D/T135N (protein)
chain: B1 chain with N98D, T135N
B4: Q38K/F71L/T135N (protein)
chain: B1 chain with T135N
B5: PYL9-K63Q/L89F (protein)
chain: MMDGVEGGTAMYGGLETVQYVRTHHQHLCRENQCTSALVKHIKAPLHLVWSLVRRFDQPQKYQPFVSRCTVIGDPEIGSLREVNVKSGFPATTSTERLELLDDEEHILGIKIIGGDHRLKNYSSILTVHPEIIEGRAGTMVIESFVVDVPQGNTKDETCYFVEALIRCNLKSLADVSERLASQDITQ
B6: PYL11-K39Q/L66F (protein)
chain: METSQKYHTCGSTLVQTIDAPLSLVWSILRRFDNPQAYQQFVKTCNLSSGDGGEGSVREVTVVSGFPAEFSRERLDELDDESHVMMISIIGGDHRLVNYRSKTMAFVAADTEEKTVVVESYVVDVPEGNSEEETTSFADTIVGFNLKSLAKLSERVAHLKL
B7: PYR1: Arabidopsis thaliana ABA receptor protein PYR1, AT4G17870 (protein, listed as Arabidopsis thaliana)
chain: MPSELTPEERSELKNSIAEFHTYQLDPGSCSSLHAQRIHAPPELVWSIVRRFDKPQTYKHFIKSCSVEQNFEMRVGCTRDVIVISGLPANTSTERLDILDDERRVTGFSIIGGEHRLTNYKSVTTVHRFEKENRIWTVVLESYVVDMPEGNSEDDTRMFADTVVKLNLQKLATVAEAMARNSGDGSGSQVT

What was measured:
RD29B-LUC expression [1] = test: Reconstituted ABA signaling pathway, transient expression in wild-type (Col-0) protoplasts; assay type: cell-based, Arabidopsis; conditions: for ABA-dependent induction of RD29B-LUC expression: co-transfected with ABI1, SnRK2.6 and ABF2, without or with 5 μM ABA, 4.5 h
Method: To test whether PYL13 can act as an ABA receptor, the ABA signaling pathway in wild-type protoplasts was reconstituted. Turning now to FIG. 1, wild-type (Col-0) protoplasts were used in both panels A and B. After transfection, the protoplasts were incubated for 4.5 hours under light in the absence of ABA (open bars) or in the presence of 5 μM ABA (closed bars). Error bars indicate s.e.m. (n=3). […] ZmUBQ-GUS was used as the internal control. […] Instead, the ABA signaling pathway was reconstituted by co-expression of PYLs, ABI1, SnRK2.6, and ABF2. […] Therefore, the response of other members of the PYL family would not predict the response of PYL13 expression or over-expression in plants.
PYL13 interacts with all clade A PP2Cs tested but binds most strongly to PP2CA. To investigate whether PYL13 inhibits PP2Cs in planta, PYL13 was co-expressed with all clade A PP2Cs in wild-type protoplasts, as shown in FIG. 4. Transfections of all PP2Cs together with SnRK2.6 and ABF2 inhibited RD29B-LUC expression to different degrees, see FIG. 4A, and the degree of inhibition was correlated with the intensity of interaction between PP2Cs and SnRK2.6 (Fujii et al., 2009). […] The ABA signaling pathway was reconstituted by co-expression of PYLs, PP2Cs, SnRK2.6, and ABF2. RD29B-LUC was used as the ABA-responsive reporter. ZmUBQ-GUS was used as the internal control. After transfection, protoplasts were incubated for 4.5 h under light in the absence of ABA (open bars) or in the presence of 5 μM ABA (closed bars). Error bars indicate s.e.m. (n=9).
To investigate the physiological significance of the binding between PYL13 and PYLs in vivo, PYL13 was co-expressed with one of the other PYLs, ABI1, SnRK2.6, and ABF2 in wild-type protoplasts. When the transfected PYL13 plasmid was 2-fold of that of the other PYLs, co-transfections with PYL13 decreased the activity of the ABA-responsive PYLs (FIG. 5E). […] ZmUBQ-GUS was used as the internal control. After transfection, protoplasts were incubated for 4.5 h under light in the absence of ABA (open bars) or in the presence of 5 μM ABA (closed bars). Error bars indicate s.e.m. (n=3).
The ABA signaling pathway was reconstituted by co-expression of PYL13, PYLs, ABI1, SnRK2.6, and ABF2. […] Error bars indicate s.e.m. (n=3). […] Without wishing to be bound by theory, PYL13 inhibition of other PYLs might result from direct interactions between PYL13 and other PYLs or from competition for the binding sites on PP2Cs.
(§1) Assays for transient expression in protoplasts were performed as described (Fujii et al., 2009). Leaf strips (0.5 mm) were cut from the middle part of second leaves using a razor blade (VWR SCIENTIFIC) and submerged in 15 mL of enzyme solution containing 20 mM MES, pH 5.7, 1.5% (w/v) cellulase R10 (YAKULT PHARMACEUTICAL INDUSTRY), 0.4% (w/v) macerozyme R10 (YAKULT PHARMACEUTICAL INDUSTRY), 0.4 M mannitol, 20 mM KCl, 10 mM CaCl2, 1 mM 2-mercaptoethanol, and 0.1% BSA. The leaves were vacuum infiltrated for 30 min and then incubated without shaking for 3 h in the dark at room temperature. The enzyme/protoplast solution was diluted with 15 mL of W5 solution (2 mM MES, pH 5.7, 154 mM NaCl, 125 mM CaCl2, and 5 mM KCl) and filtered with a 75-μm nylon mesh. Protoplasts were centrifuged at 100 g for 2 min in a 30-mL round-bottomed tube (SARSTEDT), resuspended in W5 solution, and rested for 30 min at room temperature.
Before transfection, protoplasts were changed into MMg solution (4 mM MES, pH 5.7, 0.4 M mannitol, and 15 mM MgCl2) to a final concentration of 2×10^5 cells per microliter. Protoplasts (100 μl) were gently and thoroughly mixed with the plasmid DNA mixture (less than 10 μl) and 110 μl of PEG solution (40% w/v PEG-4000, 0.2 M mannitol, and 100 mM CaCl2), incubated for 5 min, washed with 440 μl of W5 solution, and resuspended in 50 μl of WI solution (4 mM MES, pH 5.7, 0.5 M mannitol, and 20 mM KCl). After transfection, protoplasts were incubated in WI solution without ABA or with 5 μM ABA under light. […]

RD29B-LUC expression [2] = test: ABA-independent induction of RD29B-LUC in triple mutant protoplasts; assay type: cell-based, Arabidopsis; conditions: for ABA-independent RD29B-LUC expression, as share of that in the presence of 5 μM ABA: abi1/hab1/abi2 and abi1hab1pp2ca triple mutant protoplasts, with SnRK2.6 and ABF2
Source text: The basal RD29B-LUC expression level was elevated in protoplasts co-transfected with PP2CA-PYL13, HAI2-PYL13, or HAI3-PYL13, which is consistent with PYL13 inhibition of these PP2Cs in an ABA-independent manner in vivo (FIG. 4A). To exclude interference by endogenous PP2Cs in wild type protoplasts and to assess the ABA-independent selective inhibition of PP2Cs by PYL13, PYL13 was co-expressed with PP2CA, HAI1, HAI2, and HAI3 in abi1/hab1/abi2 triple mutant protoplasts, as shown in FIG. 4C. After transfection, protoplasts were incubated for 4.5 h under light in the absence of ABA. Error bars indicate s.e.m. (n=3).
Expression of RD29B-LUC in the absence of ABA was increased in the transfections of PYL9-K63Q/L89F or PYL11-K39Q/L66F together with SnRK2.6 and ABF2 to a considerable level. The ABA-independent RD29B-LUC expression is about 70% of that in the presence of 5 μM ABA in the transfection of PYL11-K39Q/L66F, while about 30˜60% in the transfection of PYL9-K63Q/L89F (FIG. 4). […] RD29B-LUC was used as the ABA-responsive reporter. ZmUBQ-GUS was used as the internal control. After transfection, protoplasts were incubated for 4.5 h under light in the absence of ABA (open bars) or in the presence of 5 μM ABA (closed bars). Error bars indicate s.e.m. (n=4).
as §1
Before transfection, protoplasts were changed into MMg solution (4 mM MES, pH 5.7, 0.4 M mannitol, and 15 mM MgCl2) to a final concentration of 2×10^5 cells per microliter. Protoplasts (100 μl) were gently and thoroughly mixed with the plasmid DNA mixture (less than 10 μl) and 110 μl of PEG solution (40% w/v PEG-4000, 0.2 M mannitol, and 100 mM CaCl2), incubated for 5 min, washed with 440 μl of W5 solution, and resuspended in 50 μl of WI solution (4 mM MES, pH 5.7, 0.5 M mannitol, and 20 mM KCl). After transfection, protoplasts were incubated in WI solution without ABA or with 5 μM ABA under light. The protoplasts were harvested after 4.5 h, frozen in liquid N2, and stored at −80° C.
The frozen protoplasts were resuspended in 50 μl of protoplast lysis buffer containing 2.5 mM Tris-phosphate, pH 7.8, 1 mM DTT, 2 mM DACTAA, 10% (v/v) glycerol, and 1% (v/v) Triton X-100. Protoplast lysates (20 μl) were mixed with 100 μl of LUC mix (PROMEGA), and LUC luminescence was measured with a plate reader (Wallac VICTOR2 plate reader).
Protoplast lysates (2 μl) were mixed with 10 μl of 4-methylumbelliferyl β-D-glucuronide (MUG) substrate mix (10 mM Tris-HCl, pH 8, 1 mM MUG [GOLD BIOTECHNOLOGY], and 2 mM MgCl2). After the mixture was kept for 30 min at 37° C., 100 μl of 0.2 M Na2CO3 was added, and GUS activity was measured using the plate reader with the excitation filter at 355 nm and the emission filter at 460 nm.
All the plasmids used in this assay were purified with the QIAGEN Plasmid Maxi Kit or the QIAGEN Plasmid Midi Kit. The quality of plasmid DNA is important for high transfection efficiency. RD29B::LUC (7 μg of plasmid per transfection) was used as the ABA-responsive reporter. ZmUBQ::GUS (2 μg of plasmid per transfection) was used as the internal control. […]

Molecule | ABA-dependent induction of RD29B-LUC expression (RD29B-LUC expression [1]) | RD29B-LUC expression (RD29B-LUC expression [1]; with ABI1, HAB1, HAB2, HAI1, and AHG1, SnRK2.6 and ABF2) | expression of RD29B-LUC in the absence of ABA (RD29B-LUC expression [2]; abi1/hab1/abi2 protoplasts, with PP2CA, HAI2, or HAI3, SnRK2.6 and ABF2) | ABA-independent RD29B-LUC expression, as share of that in the presence of 5 μM ABA (RD29B-LUC expression [2])
B1 | could partially confer | conferred an ABA-dependent induction |  | 
B2 | could partially confer |  |  | 
B3 | could partially confer |  | abolished | 
B4 | could partially confer |  |  | 
B5 | cannot antagonize |  |  | 30˜60%
B6 | cannot antagonize |  |  | about 70%
B7 | restored RD29B-LUC expression |  |  | 
